Source: the supplement of paper PMC7877785
± gives the uncertainty stated by the source.

Assay: self-splicing fitness, log relative to wild type (ln ratio); higher = more splicing; Tetrahymena group I intron in knt gene, E. coli kanamycin selection, DiMSum; sequences stand for … in CUCUCU…GGAGGGAAAAGUUAUCAGGCAUGCACCUGGUAGCUAGUCUUUAAACCAAUAGAUUGCAUCGGUUUAAAAGGCAAGACCGUCAAAUUGCGGGAAAGGGGUCAACAGCCGUUCAGUACCAAGUCUCAGGGGAAACUUUGAGAUGGCCUUGCAAAGGGUAUGGUAAUAAGCUGACGGACAUGGUCCUAACCACGCAGCCAAGUCCUAAGUCAACAGAUCUUCUGUUGAUAUGGAUGCAGUUCACAGACUAAAUGUCGGUCGGGGAAGAUGUAUUCUUCUCAUAAGAUAUAGUCGGACCUCUCCUUAAUGGGAGCUAGCGGAUGAAGUGAUGCAACACUGGAGCCGCUGGGAACUAAUUUGUAUGCGAAAGUAUAUUGAUUAGUUUUGGAGUACUCGUGGUCG
In short: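 Pooled colonies went to amplicon sequencing on an Illumina HiSeq 2500 after six replicate transformations. The plates were LB agar with 100 μg/mL carbenicillin, 50 μM IPTG and 0.2% rhamnose, with or without 25 μg/mL kanamycin, incubated overnight at 37°C or 30°C. The E. coli BL21(DE3) library had all eight P1ex-region intron nucleotides randomised, the intron placed in the knt kanamycin-resistance gene on pET-22b(+). DiMSum fitness is the error-weighted combination of replicate fold changes, kanamycin against none, normalised to wild type.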

Sequence | self-splicing fitness (ln) (30 °C) | self-splicing fitness (ln) (37 °C)
GCAUAGCAAUAUUACGGACC | -0.439 ± 0.1 | -0.576 ± 0.093
GCAUAGCAAUAUUACGGAGG | -3.03 ± 0.12 | -3.37 ± 0.21
GCAUAGCAAUAUUACGGCAA | -1.49 ± 0.18 | -0.271 ± 0.17
GCAUAGCAAUAUUACGGCUC | 0.0416 ± 0.087 | -0.0445 ± 0.088
GCAUAGCAAUAUUACGGGUA | -0.992 ± 0.12 | -1.11 ± 0.11
GCAUAGCAAUAUUACGGGUG | -2.29 ± 0.13 | -1.82 ± 0.12
GCAUAGCAAUAUUACGGUCA | -0.966 ± 0.09 | -0.953 ± 0.096
GCAUAGCAAUAUUACGGUCG | -1.77 ± 0.12 | -1.12 ± 0.12
GCAUAGCAAUAUUACGGUUU | -1.62 ± 0.08 | -0.625 ± 0.085
GCAUAGCAAUAUUACGUAAU | -2.58 ± 0.1 | -0.793 ± 0.096
GCAUAGCAAUAUUACGUCUC | -1.85 ± 0.14 | -0.552 ± 0.11
GCAUAGCAAUAUUACGUGAG | -0.159 ± 0.069 | -0.351 ± 0.083
GCAUAGCAAUAUUACGUGCC | -3.42 ± 0.21 | -1.03 ± 0.29
GCAUAGCAAUAUUACGUUAA | -2.44 ± 0.19 | -1.81 ± 0.15
GCCAAGCAAUAUUACGAAAC | -2.15 ± 0.14 | -0.23 ± 0.14
GCCAAGCAAUAUUACGAAAU | -3.24 ± 0.19 | -2.28 ± 0.18
GCCAAGCAAUAUUACGACCG | -3.81 ± 0.22 | -2.01 ± 0.12
GCCAAGCAAUAUUACGACGU | -0.238 ± 0.099 | 0.0827 ± 0.088
GCCAAGCAAUAUUACGAGAA | -2.69 ± 0.4 | -0.69 ± 0.35
GCCAAGCAAUAUUACGAGAU | -2.41 ± 0.14 | -2.1 ± 0.17
GCCAAGCAAUAUUACGAGGG | -2.8 ± 0.094 | -1.82 ± 0.11
GCCAAGCAAUAUUACGAGUG | -2.32 ± 0.087 | -1.72 ± 0.093
GCCAAGCAAUAUUACGAUGU | -0.536 ± 0.061 | 0.0237 ± 0.084
GCCAAGCAAUAUUACGAUUA | -2.86 ± 0.17 | -2.57 ± 0.15

Sequence | self-splicing fitness (ln) (30 °C) | self-splicing fitness (ln) (37 °C)
GCCAAGCAAUAUUACGCAAC | -1.98 ± 0.13 | -1.32 ± 0.16
GCCAAGCAAUAUUACGGAAA | -1.46 ± 0.16 | -1.14 ± 0.13
GCCAAGCAAUAUUACGGAAC | -1.73 ± 0.18 | -0.77 ± 0.18
GCCAAGCAAUAUUACGGAGG | -3.49 ± 0.19 | -1.08 ± 0.16
GCCAAGCAAUAUUACGGCUG | -3.81 ± 0.13 | -3.25 ± 0.19
GCCAAGCAAUAUUACGGGCU | -4.88 ± 0.28 | -2.98 ± 0.23
GCCAAGCAAUAUUACGGUAA | -0.713 ± 0.1 | 0.0284 ± 0.1
GCCAAGCAAUAUUACGGUAU | -1.62 ± 0.069 | 0.416 ± 0.076
GCCAAGCAAUAUUACGGUGA | -1.06 ± 0.06 | -0.493 ± 0.065
GCCAAGCAAUAUUACGGUGU | -1.48 ± 0.049 | -0.507 ± 0.06
GCCAAGCAAUAUUACGUACA | -2.65 ± 0.16 | -1.65 ± 0.11
GCCAAGCAAUAUUACGUACG | -1.79 ± 0.078 | -1.56 ± 0.11
GCCAAGCAAUAUUACGUCGA | -2.34 ± 0.16 | -1.29 ± 0.14
GCCAAGCAAUAUUACGUUCC | -0.712 ± 0.1 | -0.674 ± 0.16
GCCCAGCAAUAUUACGACGC | -0.00307 ± 0.052 | -0.0866 ± 0.067
GCCCAGCAAUAUUACGACUG | -4.23 ± 0.22 | -2.44 ± 0.19
GCCCAGCAAUAUUACGAGAA | -0.685 ± 0.28 | -0.511 ± 0.21
GCCCAGCAAUAUUACGAUCU | -1.36 ± 0.092 | -1.47 ± 0.12
GCCCAGCAAUAUUACGCAAA | -2.41 ± 0.14 | -1.3 ± 0.11
GCCCAGCAAUAUUACGCCCU | -0.933 ± 0.12 | -0.685 ± 0.16
GCCCAGCAAUAUUACGCCGU | -0.724 ± 0.092 | -0.492 ± 0.094
GCCCAGCAAUAUUACGCCUA | -1.9 ± 0.18 | -0.261 ± 0.12
GCCCAGCAAUAUUACGCGGU | -3.33 ± 0.16 | -3.02 ± 0.19
GCCCAGCAAUAUUACGCUCG | -3.45 ± 0.24 | -2.34 ± 0.27

Sequence | self-splicing fitness (ln) (30 °C) | self-splicing fitness (ln) (37 °C)
GCCCAGCAAUAUUACGCUGC | – | -1.55 ± 0.41
GCCCAGCAAUAUUACGCUUA | -0.569 ± 0.071 | -0.378 ± 0.08
GCCCAGCAAUAUUACGCUUU | 0.177 ± 0.056 | 0.242 ± 0.074
GCCCAGCAAUAUUACGGACA | -0.873 ± 0.12 | -0.931 ± 0.13
GCCCAGCAAUAUUACGGAGG | -4.2 ± 0.15 | -2.51 ± 0.13
GCCCAGCAAUAUUACGGGCC | -3.22 ± 0.13 | -2.58 ± 0.26
GCCCAGCAAUAUUACGGGGU | -3.84 ± 0.19 | -2.77 ± 0.24
GCCCAGCAAUAUUACGGUCA | -0.8 ± 0.071 | -0.326 ± 0.074
GCCCAGCAAUAUUACGGUGG | -3.21 ± 0.17 | -3.59 ± 0.25
GCCCAGCAAUAUUACGUACG | -3.98 ± 0.37 | -1.41 ± 0.18
GCCCAGCAAUAUUACGUAGG | -2.35 ± 0.24 | -2.15 ± 0.2
GCCCAGCAAUAUUACGUCGG | -3.13 ± 0.13 | -3.08 ± 0.2
GCCCAGCAAUAUUACGUUAA | -1.6 ± 0.097 | -1.01 ± 0.089
GCCGAGCAAUAUUACGAAGG | -3.25 ± 0.24 | -2.12 ± 0.49
GCCGAGCAAUAUUACGAAUC | -1.68 ± 0.11 | -0.92 ± 0.12
GCCGAGCAAUAUUACGACAA | -3.38 ± 0.34 | -2.05 ± 0.24
GCCGAGCAAUAUUACGAGAG | -3.14 ± 0.3 | -0.44 ± 0.19
GCCGAGCAAUAUUACGAGCC | -3.06 ± 0.14 | -2.3 ± 0.24
GCCGAGCAAUAUUACGCACG | -3.74 ± 0.35 | -1.49 ± 0.36
GCCGAGCAAUAUUACGCAUA | -3.39 ± 0.22 | -1.41 ± 0.16
GCCGAGCAAUAUUACGCCUA | -2.44 ± 0.2 | -1.58 ± 0.16
GCCGAGCAAUAUUACGCGGC | – | -2.33 ± 0.36
GCCGAGCAAUAUUACGCUGC | -4.22 ± 0.36 | -2.81 ± 0.25
GCCGAGCAAUAUUACGGAAG | -2.65 ± 0.23 | -0.897 ± 0.15

Sequence | self-splicing fitness (ln) (30 °C) | self-splicing fitness (ln) (37 °C)
GCCGAGCAAUAUUACGGCGG | -2.62 ± 0.21 | -1.91 ± 0.3
GCCGAGCAAUAUUACGGGCC | -3.59 ± 0.32 | -1.99 ± 0.41
GCCGAGCAAUAUUACGGUGA | -1.49 ± 0.088 | -0.176 ± 0.095
GCCGAGCAAUAUUACGGUUC | -4.42 ± 0.3 | -1.79 ± 0.26
GCCGAGCAAUAUUACGUACA | -2.85 ± 0.18 | -1.85 ± 0.17
GCCGAGCAAUAUUACGUAGU | -1.34 ± 0.14 | -0.503 ± 0.16
GCCGAGCAAUAUUACGUCUU | -2.71 ± 0.16 | -1.82 ± 0.14
GCCGAGCAAUAUUACGUUCA | -1.03 ± 0.11 | -0.854 ± 0.14
GCCUAGCAAUAUUACGAACU | -1.67 ± 0.23 | -0.772 ± 0.23
GCCUAGCAAUAUUACGAGGG | -3.68 ± 0.21 | -1.6 ± 0.15
GCCUAGCAAUAUUACGCCUC | 0.149 ± 0.18 | 0.175 ± 0.41
GCCUAGCAAUAUUACGCUAA | -1.28 ± 0.11 | 0.00419 ± 0.12
GCCUAGCAAUAUUACGGAGC | -2.44 ± 0.13 | -1.43 ± 0.1
GCCUAGCAAUAUUACGGCAG | -2.72 ± 0.19 | -2.18 ± 0.42
GCCUAGCAAUAUUACGGGAC | -2.4 ± 0.13 | -0.0283 ± 0.1
GCCUAGCAAUAUUACGGGUG | -1.02 ± 0.056 | -0.101 ± 0.067
GCCUAGCAAUAUUACGGUAA | -0.151 ± 0.079 | -0.546 ± 0.075
GCCUAGCAAUAUUACGGUGG | -4.34 ± 0.27 | -2.86 ± 0.22
GCCUAGCAAUAUUACGUAAG | -1.83 ± 0.088 | -0.757 ± 0.11
GCCUAGCAAUAUUACGUCAA | -2.16 ± 0.22 | -1.8 ± 0.18
GCCUAGCAAUAUUACGUGCG | -1.6 ± 0.075 | -0.358 ± 0.078
GCCUAGCAAUAUUACGUUGU | -0.142 ± 0.04 | 0.252 ± 0.055
GCGAAGCAAUAUUACGACAU | -0.422 ± 0.012 | 0.0421 ± 0.032
